Experimental data published in article PMC9177983.

Target: reconstituted elongation complex (EC): His-tagged E. coli RNAP core complex on template DNA, non-template DNA and RNA transcript (E. coli)

Chain of NusG (P0AFG0 whole entry): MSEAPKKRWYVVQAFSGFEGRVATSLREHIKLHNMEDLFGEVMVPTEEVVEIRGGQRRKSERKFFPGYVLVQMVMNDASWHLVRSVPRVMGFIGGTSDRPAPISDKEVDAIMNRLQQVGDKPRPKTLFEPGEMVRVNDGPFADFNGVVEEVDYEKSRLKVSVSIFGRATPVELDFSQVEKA

**Q.** With “NusG (from UniProt P0AFG0 1-181) (natural protein)” as the substance, how does the smFRET of surface-immobilised ECs with 500 nM NusG, no nucleotide: percentage of dynamic ECs in the high-mid and high-low FRET regimes (23% for EC alone) read?
**A.** 33%
